One data set concerns the target ATF3;CEBPA (human;human, UniProt P18847;P49715 ;, |). In words: EMSA-FRET; heterodimer; EMSA-FRET: 50 nM each labeled protein, 10 nM DNA, 50 mM potassium phosphate pH 7.4, 150 mM KCl, 0.1% BSA, 0.1% Tween-20, 5 ng/ul poly(dI-dC), 0.5 mM TCEP; 37 C. To be noted: protein: recombinant;recombinant; fluorescein or TAMRA; chain copies: 2;2; label: 5' TYE 665; blunt. For orientation: Mobility shift assays separate free from complexed probe on a gel.

A further data set addresses T1, ATF3;CEBPG (human;human, UniProt P18847;P53567 ;, |).
T1 sequence 1: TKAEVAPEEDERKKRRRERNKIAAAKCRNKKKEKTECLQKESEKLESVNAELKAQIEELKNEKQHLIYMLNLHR
T1 sequence 2: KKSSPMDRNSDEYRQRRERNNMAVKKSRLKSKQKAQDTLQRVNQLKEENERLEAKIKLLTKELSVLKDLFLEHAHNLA
The data set is described as above. The conditions noted are these: protein: recombinant;recombinant; fluorescein or TAMRA; chain copies: 2;2; label: 5' TYE 665; blunt.

Another data set deals with T2, CEBPG (human, UniProt P53567).
T2 sequence: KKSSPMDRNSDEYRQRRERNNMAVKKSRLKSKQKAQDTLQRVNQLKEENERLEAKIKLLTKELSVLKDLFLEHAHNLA
In words: EMSA-FRET; homodimer; EMSA-FRET: 50 nM each labeled protein, 10 nM DNA, 50 mM potassium phosphate pH 7.4, 150 mM KCl, 0.1% BSA, 0.1% Tween-20, 5 ng/ul poly(dI-dC), 0.5 mM TCEP; 37 C. To be noted: protein: recombinant; fluorescein or TAMRA; chain copies: 2; label: 5' TYE 665; blunt.

For another data set, the target named is T3, BATF3 (human, UniProt Q9NR55).
T3 sequence: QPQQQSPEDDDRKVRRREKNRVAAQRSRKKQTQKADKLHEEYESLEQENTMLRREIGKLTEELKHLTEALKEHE
The data set is described as above. The conditions noted are these: protein: recombinant; fluorescein or TAMRA; chain copies: 2; label: 5' TYE 665; blunt.

In data set [1] the target is T4, BATF3;JUN (human;human, UniProt Q9NR55;P05412 ;, |). In words: EMSA-FRET; heterodimer; EMSA-FRET: 50 nM each labeled protein, 10 nM DNA, 50 mM potassium phosphate pH 7.4, 150 mM KCl, 0.1% BSA, 0.1% Tween-20, 5 ng/ul poly(dI-dC), 0.5 mM TCEP; 37 C. To be noted: protein: recombinant;recombinant; fluorescein or TAMRA; chain copies: 2;2; label: 5' TYE 665; blunt.
The target of data set [2] is T5, XBP1 (human, UniProt P17861).
T5 sequence: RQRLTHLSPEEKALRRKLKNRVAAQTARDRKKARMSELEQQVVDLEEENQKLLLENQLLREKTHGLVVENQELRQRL
In words: EMSA-FRET; homodimer; comparable to CRE; EMSA-FRET: 50 nM each labeled protein, 10 nM DNA, 50 mM potassium phosphate pH 7.4, 150 mM KCl, 0.1% BSA, 0.1% Tween-20, 5 ng/ul poly(dI-dC), 0.5 mM TCEP; 37 C. The conditions noted are these: protein: recombinant; fluorescein or TAMRA; chain copies: 2; label: 5' TYE 665; blunt.

The target of data set [3] is T6, ATF2;BATF3 (human;human, UniProt P15336;Q9NR55 ;, |).
T6 sequence 1: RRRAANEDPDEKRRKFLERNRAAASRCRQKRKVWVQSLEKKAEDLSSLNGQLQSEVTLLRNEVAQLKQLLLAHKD
T6 sequence 2: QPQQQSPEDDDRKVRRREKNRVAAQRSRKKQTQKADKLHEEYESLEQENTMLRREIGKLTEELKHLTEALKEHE
Nature of the data set: EMSA-FRET; heterodimer; comparable to CRE; EMSA-FRET: 50 nM each labeled protein, 10 nM DNA, 50 mM potassium phosphate pH 7.4, 150 mM KCl, 0.1% BSA, 0.1% Tween-20, 5 ng/ul poly(dI-dC), 0.5 mM TCEP; 37 C. The conditions noted are these: protein: recombinant;recombinant; fluorescein or TAMRA; copies: 1;1; label: 5' TYE 665; blunt.

For data set [4], the target named is T7, JUN (human, UniProt P05412). Nature of the data set: EMSA-FRET; homodimer; no detectable affinity; EMSA-FRET: 50 nM each labeled protein, 10 nM DNA, 50 mM potassium phosphate pH 7.4, 150 mM KCl, 0.1% BSA, 0.1% Tween-20, 5 ng/ul poly(dI-dC), 0.5 mM TCEP; 37 C. To be noted: protein: recombinant; fluorescein or TAMRA; chain copies: 2; label: 5' TYE 665; blunt.

The target in data set [5] is T7, JUN. Nature of the data set: EMSA-FRET; homodimer; EMSA-FRET: 50 nM each labeled protein, 10 nM DNA, 50 mM potassium phosphate pH 7.4, 150 mM KCl, 0.1% BSA, 0.1% Tween-20, 5 ng/ul poly(dI-dC), 0.5 mM TCEP; 37 C. The conditions noted are these: protein: recombinant; fluorescein or TAMRA; chain copies: 2; label: 5' TYE 665; blunt.
For the next data set, the target named is T8, ATF3 (human, UniProt P18847).
T8 sequence: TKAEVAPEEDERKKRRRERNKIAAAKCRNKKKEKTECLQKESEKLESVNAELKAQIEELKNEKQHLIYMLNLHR
Described as above. The conditions noted are these: protein: recombinant; fluorescein or TAMRA; chain copies: 2; label: 5' TYE 665; blunt.

For data set [6], the target named is T5, XBP1. In words: EMSA-FRET; homodimer; comparable to CRE-L; EMSA-FRET: 50 nM each labeled protein, 10 nM DNA, 50 mM potassium phosphate pH 7.4, 150 mM KCl, 0.1% BSA, 0.1% Tween-20, 5 ng/ul poly(dI-dC), 0.5 mM TCEP; 37 C. To be noted: protein: recombinant; fluorescein or TAMRA; chain copies: 2; label: 5' TYE 665; blunt.
For data set [7], the target named is T6, ATF2;BATF3. Nature of the data set: EMSA-FRET; heterodimer; comparable to CRE-L; EMSA-FRET: 50 nM each labeled protein, 10 nM DNA, 50 mM potassium phosphate pH 7.4, 150 mM KCl, 0.1% BSA, 0.1% Tween-20, 5 ng/ul poly(dI-dC), 0.5 mM TCEP; 37 C. The conditions noted are these: protein: recombinant;recombinant; fluorescein or TAMRA; copies: 1;1; label: 5' TYE 665; blunt.

Data set [8] deals with T4, BATF3;JUN. The data set is described as above. To be noted: protein: recombinant;recombinant; fluorescein or TAMRA; chain copies: 2;2; label: 5' TYE 665; blunt.
The next data set has as its target BATF3;CEBPA (human;human, UniProt Q9NR55;P49715 ;, |). In words: EMSA-FRET; heterodimer; EMSA-FRET: 50 nM each labeled protein, 10 nM DNA, 50 mM potassium phosphate pH 7.4, 150 mM KCl, 0.1% BSA, 0.1% Tween-20, 5 ng/ul poly(dI-dC), 0.5 mM TCEP; 37 C. The conditions noted are these: protein: recombinant;recombinant; fluorescein or TAMRA; chain copies: 2;2; label: 5' TYE 665; blunt.

T7 sequence (P05412 243-316): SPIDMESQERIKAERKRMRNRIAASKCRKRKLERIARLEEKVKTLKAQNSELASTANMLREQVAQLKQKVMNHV
T4 sequence (P05412 243-316, one chain of several): as the sequence (P05412 243-316) above
Chain of ATF3;CEBPA (P49715 273-345, one chain of several): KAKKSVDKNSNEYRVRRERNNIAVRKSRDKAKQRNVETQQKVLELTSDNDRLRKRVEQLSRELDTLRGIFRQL
Chain of BATF3;CEBPA (P49715 273-345, one chain of several): as above

B1: AP1/CAAT (TRE-CAAT) (dsDNA)
DNA 1: GAGTCCATGAGCAATCCGTAG
DNA 2: CTACGGATTGCTCATGGACTC
Take B1: the binding result with ATF3;CEBPA is reported as “binds”.

B2: CRE/CAAT (dsDNA)
DNA 1: GAGTCCATGACGCAATCCGTAG
DNA 2: CTACGGATTGCGTCATGGACTC
On to B2, for which the binding result in the data set with ATF3;CEBPG is given as “binds”.

B3: CAAT (dsDNA)
DNA 1: GAGTCCATTGCGCAATCCGTAG
DNA 2: CTACGGATTGCGCAATGGACTC
Regarding B3, in the data set with CEBPG, the binding result was “binds”.

B4: CRE-L (dsDNA)
DNA 1: GAGTCCATGACGTGGCCCGTAG
DNA 2: CTACGGGCCACGTCATGGACTC
On to B4, for which the binding result with BATF3 is “no binding”; with BATF3;JUN [1], “binds”; in the data set with XBP1 [2] it was “binds”; with ATF2;BATF3 [3] it was “binds”; with JUN [4] it was “no binding”.

B5: CRE (dsDNA)
DNA 1: GAGTCCATGACGTCATCCGTAG
DNA 2: CTACGGATGACGTCATGGACTC
Turning to B5, the binding result with JUN [5], with BATF3, in the data set with ATF3, in the data set with XBP1 [6], with ATF2;BATF3 [7] and with BATF3;JUN [8] was “binds” each time.

B6: CREA/CAAT (CRE-L-CAAT) (dsDNA)
DNA 1: GAGTCCGCCACGCAATCCGTAG
DNA 2: CTACGGATTGCGTGGCGGACTC
As for B6, the binding result with BATF3;CEBPA is given as “binds”.
